Our source for the abundance fitness values is the Human Domainome abundance scans (Beltran et al. 2025).

± gives the uncertainty stated by the source.

B1: Retinoic acid receptor RXR-alpha, residues 132 to 208; numbered along this chain, P19793 (parent)
chain: KHICAICGDRSSGKHYGVYSCEGCKGFFKRTVRKDLTYTCRDNKDCLIDKRQRNRCQYCRYQKCLAMGMKREAVQEE

The variants in this series derive from B1. Briefly: abundance fitness (aPCA) (normalised: wild type 0, dead -1); higher = more abundant; growth selection in yeast, the domain comes from the species named. The following applies: Homo sapiens.
On to KHICAICGDRSSGKHYWVYSCEGCKGFFKRTVRKDLTYTCRDNKDCLIDKRQRNRCQYCRYQKCLAMGMKREAVQEE [G17W], for which the abundance fitness was -0.163 ± 0.035.

As for KHICAICGDRSSGKHYMVYSCEGCKGFFKRTVRKDLTYTCRDNKDCLIDKRQRNRCQYCRYQKCLAMGMKREAVQEE [G17M], the abundance fitness worked out at 0.025 ± 0.044.

With KHICAICGDRSSGKHYDVYSCEGCKGFFKRTVRKDLTYTCRDNKDCLIDKRQRNRCQYCRYQKCLAMGMKREAVQEE [G17D], the abundance fitness amounted to 0.031 ± 0.063.

As for KHICAICGDRSSGKHYKVYSCEGCKGFFKRTVRKDLTYTCRDNKDCLIDKRQRNRCQYCRYQKCLAMGMKREAVQEE [G17K], the abundance fitness was -0.085 ± 0.046.

KHICAICGDRSSGKHYRVYSCEGCKGFFKRTVRKDLTYTCRDNKDCLIDKRQRNRCQYCRYQKCLAMGMKREAVQEE [G17R]: the abundance fitness is -0.095 ± 0.027.

Take KHICAICGDRSSGKHYIVYSCEGCKGFFKRTVRKDLTYTCRDNKDCLIDKRQRNRCQYCRYQKCLAMGMKREAVQEE [G17I]: the abundance fitness was -0.275 ± 0.087.

With KHICAICGDRSSGKHYHVYSCEGCKGFFKRTVRKDLTYTCRDNKDCLIDKRQRNRCQYCRYQKCLAMGMKREAVQEE [G17H], the abundance fitness was -0.053 ± 0.089.

KHICAICGDRSSGKHYAVYSCEGCKGFFKRTVRKDLTYTCRDNKDCLIDKRQRNRCQYCRYQKCLAMGMKREAVQEE [G17A]: the abundance fitness is -0.106 ± 0.03.

As to KHICAICGDRSSGKHYPVYSCEGCKGFFKRTVRKDLTYTCRDNKDCLIDKRQRNRCQYCRYQKCLAMGMKREAVQEE [G17P], the abundance fitness was -0.277 ± 0.052.

Take KHICAICGDRSSGKHYCVYSCEGCKGFFKRTVRKDLTYTCRDNKDCLIDKRQRNRCQYCRYQKCLAMGMKREAVQEE [G17C]: the abundance fitness is -0.002 ± 0.059.

Turning to KHICAICGDRSSGKHYNVYSCEGCKGFFKRTVRKDLTYTCRDNKDCLIDKRQRNRCQYCRYQKCLAMGMKREAVQEE [G17N], the abundance fitness is 0.056 ± 0.068.

In the case of KHICAICGDRSSGKHYEVYSCEGCKGFFKRTVRKDLTYTCRDNKDCLIDKRQRNRCQYCRYQKCLAMGMKREAVQEE [G17E], the abundance fitness turned out to be 0.005 ± 0.037.

Regarding KHICAICGDRSSGKHYYVYSCEGCKGFFKRTVRKDLTYTCRDNKDCLIDKRQRNRCQYCRYQKCLAMGMKREAVQEE [G17Y], the abundance fitness is -0.1 ± 0.13.

On to KHICAICGDRSSGKHYLVYSCEGCKGFFKRTVRKDLTYTCRDNKDCLIDKRQRNRCQYCRYQKCLAMGMKREAVQEE [G17L], for which the abundance fitness was -0.107 ± 0.035.

As to KHICAICGDRSSGKHYSVYSCEGCKGFFKRTVRKDLTYTCRDNKDCLIDKRQRNRCQYCRYQKCLAMGMKREAVQEE [G17S], the abundance fitness was -0.029 ± 0.033.

For the variant KHICAICGDRSSGKHYFVYSCEGCKGFFKRTVRKDLTYTCRDNKDCLIDKRQRNRCQYCRYQKCLAMGMKREAVQEE [G17F], the abundance fitness was -0.088 ± 0.1.

As for KHICAICGDRSSGKHYQVYSCEGCKGFFKRTVRKDLTYTCRDNKDCLIDKRQRNRCQYCRYQKCLAMGMKREAVQEE [G17Q], the abundance fitness was -0.089 ± 0.041.

KHICAICGDRSSGKHRGVYSCEGCKGFFKRTVRKDLTYTCRDNKDCLIDKRQRNRCQYCRYQKCLAMGMKREAVQEE [Y16R]: the abundance fitness is -0.055 ± 0.024.

For KHICAICGDRSSGKHMGVYSCEGCKGFFKRTVRKDLTYTCRDNKDCLIDKRQRNRCQYCRYQKCLAMGMKREAVQEE [Y16M], the abundance fitness is -0.001 ± 0.032.

As for KHICAICGDRSSGKHQGVYSCEGCKGFFKRTVRKDLTYTCRDNKDCLIDKRQRNRCQYCRYQKCLAMGMKREAVQEE [Y16Q], the abundance fitness was 0.063 ± 0.03.

On to KHICAICGDRSSGKHTGVYSCEGCKGFFKRTVRKDLTYTCRDNKDCLIDKRQRNRCQYCRYQKCLAMGMKREAVQEE [Y16T], for which the abundance fitness was -0.04 ± 0.026.

As to KHICAICGDRSSGKHSGVYSCEGCKGFFKRTVRKDLTYTCRDNKDCLIDKRQRNRCQYCRYQKCLAMGMKREAVQEE [Y16S], the abundance fitness turned out to be 0.014 ± 0.024.

Take KHICAICGDRSSGKHPGVYSCEGCKGFFKRTVRKDLTYTCRDNKDCLIDKRQRNRCQYCRYQKCLAMGMKREAVQEE [Y16P]: the abundance fitness was -0.082 ± 0.03.

As to KHICAICGDRSSGKHWGVYSCEGCKGFFKRTVRKDLTYTCRDNKDCLIDKRQRNRCQYCRYQKCLAMGMKREAVQEE [Y16W], the abundance fitness is -0.015 ± 0.032.

As for KHICAICGDRSSGKHVGVYSCEGCKGFFKRTVRKDLTYTCRDNKDCLIDKRQRNRCQYCRYQKCLAMGMKREAVQEE [Y16V], the abundance fitness came out at 0.004 ± 0.025.

With KHICAICGDRSSGKHHGVYSCEGCKGFFKRTVRKDLTYTCRDNKDCLIDKRQRNRCQYCRYQKCLAMGMKREAVQEE [Y16H], the abundance fitness is -0.031 ± 0.035.

Consider KHICAICGDRSSGKHLGVYSCEGCKGFFKRTVRKDLTYTCRDNKDCLIDKRQRNRCQYCRYQKCLAMGMKREAVQEE [Y16L], for which the abundance fitness is -0.035 ± 0.024.

With KHICAICGDRSSGKHGGVYSCEGCKGFFKRTVRKDLTYTCRDNKDCLIDKRQRNRCQYCRYQKCLAMGMKREAVQEE [Y16G], the abundance fitness came out at 0.015 ± 0.025.

For the variant KHICAICGDRSSGKHNGVYSCEGCKGFFKRTVRKDLTYTCRDNKDCLIDKRQRNRCQYCRYQKCLAMGMKREAVQEE [Y16N], the abundance fitness is -0.089 ± 0.031.

As for KHICAICGDRSSGKHKGVYSCEGCKGFFKRTVRKDLTYTCRDNKDCLIDKRQRNRCQYCRYQKCLAMGMKREAVQEE [Y16K], the abundance fitness is -0.092 ± 0.031.

On to KHICAICGDRSSGKHYGTYSCEGCKGFFKRTVRKDLTYTCRDNKDCLIDKRQRNRCQYCRYQKCLAMGMKREAVQEE [V18T], for which the abundance fitness is -0.357 ± 0.099.

For KHICAICGDRSSGKHYGEYSCEGCKGFFKRTVRKDLTYTCRDNKDCLIDKRQRNRCQYCRYQKCLAMGMKREAVQEE [V18E], the abundance fitness stood at 0.01 ± 0.04.

KHICAICGDRSSGKHYGCYSCEGCKGFFKRTVRKDLTYTCRDNKDCLIDKRQRNRCQYCRYQKCLAMGMKREAVQEE [V18C]: the abundance fitness was -0.078 ± 0.039.

Turning to KHICAICGDRSSGKHYGRYSCEGCKGFFKRTVRKDLTYTCRDNKDCLIDKRQRNRCQYCRYQKCLAMGMKREAVQEE [V18R], the abundance fitness is -0.227 ± 0.037.

As for KHICAICGDRSSGKHYGMYSCEGCKGFFKRTVRKDLTYTCRDNKDCLIDKRQRNRCQYCRYQKCLAMGMKREAVQEE [V18M], the abundance fitness is -0.147 ± 0.083.
